Experimental data from article PMC3927129 (Science (New York, N.Y.), 2011).

Molecular target: the molecule itself
Assay: native MS

B1: subunit K of the Enterococcus hirae rotary ATPase (K10 membrane ring) (natural protein)
chain: MMDYLITQNGGMVFAVLAMATATIFSGIGSAKGVGMTGEAAAALTTSQPEKFGQALILQLLPGTQGLYGFVIAFLIFINLGSDMSVVQGLNFLGASLPIAFTGLFSGIAQGKVAAAGIQILAKKPEHATKGIIFAAMVETYAILGFVISFLLVLNA
Q: How did the “stoichiometry N” value turn out when B1 was run?
A: Its value is 10.
